Measurements published in patent US20260250410A1, “ANTIBODY AND USE THEREOF” (SICHUAN HUIYU PHARMACEUTICAL CO., LTD., priority 2022, published 2026).

T1: HuCDCP1-C (Homo sapiens, UniProt Q9H5V8)
T1 construct: made in house; host or cells: HEK-293T
T1 sequence (Q9H5V8 30-667): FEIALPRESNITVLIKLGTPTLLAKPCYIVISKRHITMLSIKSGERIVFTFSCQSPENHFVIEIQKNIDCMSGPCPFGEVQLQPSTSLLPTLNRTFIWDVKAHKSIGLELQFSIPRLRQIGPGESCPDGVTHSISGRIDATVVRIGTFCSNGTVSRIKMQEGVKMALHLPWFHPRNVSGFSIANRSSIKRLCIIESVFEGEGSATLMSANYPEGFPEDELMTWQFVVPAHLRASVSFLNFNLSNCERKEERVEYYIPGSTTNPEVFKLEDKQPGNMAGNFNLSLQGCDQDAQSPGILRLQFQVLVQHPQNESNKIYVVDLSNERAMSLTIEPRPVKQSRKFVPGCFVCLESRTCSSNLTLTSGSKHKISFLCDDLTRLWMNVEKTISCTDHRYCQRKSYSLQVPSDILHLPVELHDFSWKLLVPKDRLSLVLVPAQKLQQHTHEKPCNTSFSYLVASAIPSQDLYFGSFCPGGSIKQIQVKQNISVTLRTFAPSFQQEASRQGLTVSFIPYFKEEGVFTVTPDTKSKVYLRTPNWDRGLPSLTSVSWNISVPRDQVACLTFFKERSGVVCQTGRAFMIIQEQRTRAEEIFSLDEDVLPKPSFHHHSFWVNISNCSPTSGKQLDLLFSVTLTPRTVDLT


Target: T1, HuCDCP1-C
Assay: Caterra affinity of humanized anti-CDCP1 antibodies
Format: binding
Conditions: HuCDCP1-C 2 μg/ml immobilized
Protocol: The humanized anti-CDCP1 antibodies obtained from Example 11 were subjected to gene cloning, constructed into pTT5 expression vector for a small amount of expression in CHO cells (Expi-CHOS: Gibco A29127), and purified with an Fc affinity column (AT Protein A Diamond Plus. No. AA402312). Antibody purity was analyzed by HPLC and determined by Nanodrop. High-throughput affinity assay was carried out for a small amount of antibodies by Caterra.

Molecule | ka [M⁻¹ s⁻¹] | kd [s⁻¹]
1CP-127: humanized anti-CDCP1 antibody produced by 3C11; VH SEQ ID NO: 342, VL SEQ ID NO: 351 (antibody, V domains shown, humanized antibody 3C11 heavy chain variable region 04; humanized antibody 3C11 light chain variable region 01) VH: QVQLVQSGAEVKKPGASVKVSCKASGYNFISYWLHWVRQAPGQGLEWMGGIYPGNTDTTYNQKFKGRVTVTAVTSTSTVYMELSSLRSEDTAVYYCIRYDYDRGMDYWGQGTLVTVSS VL: DIQMTQSPSSLSASVGDRVTITCRASEDIYYRLAWYQQKPGKAPKLLISGATALETGVPSRFSGSGSGKDYTFTISSLQPEDIATYYCQHYWNIPWTFGQGTKVEIK | 205000 | 0.00198
1CP-132: humanized anti-CDCP1 antibody produced by 3C11; VH SEQ ID NO: 339, VL SEQ ID NO: 353 (antibody, V domains shown, humanized antibody 3C11 heavy chain variable region 01; humanized antibody 3C11 light chain variable region 03) VH: QVQLVQSGAEVKKPGASVKVSCKASGYNFISYWLHWVRQAPGQGLEWMGGIYPGNTDTTYNQKFKGRVTMTRDTSTSTVYMELSSLRSEDTAVYYCIRYDYDRGMDYWGQGTLVTVSS VL: DIQMTQSPSSLSASVGDRVTITCRASEDIYYRLAWYQQKPGNAPKLLISGATALETGVPSRFSGSGSGKDYTLTISSLQPEDIATYYCQHYWNIPWTFGQGTKVEIK | 140000 | 1e-05
1CP-131: humanized anti-CDCP1 antibody produced by 3C11; VH SEQ ID NO: 342, VL SEQ ID NO: 352 (antibody, V domains shown, humanized antibody 3C11 heavy chain variable region 04; humanized antibody 3C11 light chain variable region 02) VH: QVQLVQSGAEVKKPGASVKVSCKASGYNFISYWLHWVRQAPGQGLEWMGGIYPGNTDTTYNQKFKGRVTVTAVTSTSTVYMELSSLRSEDTAVYYCIRYDYDRGMDYWGQGTLVTVSS VL: DIQMTQSPSSLSASVGDRVTITCRASEDIYYRLAWYQQKPGKAPKLLISGATALETGVPSRFSGSGSGKDYTLTISSLQPEDIATYYCQHYWNIPWTFGQGTKVEIK | 191000 | 0.002
1CP-118: humanized anti-CDCP1 antibody produced by 8E5; VH SEQ ID NO: 349, VL SEQ ID NO: 358 (antibody, V domains shown, humanized antibody 8E5 heavy chain variable region 03; humanized antibody 8E5 light chain variable region 02) VH: QVQLVQSGSELKKPGESVKVSCKASGYTLTDFSMHWVRQAPGQGLEWMGWINTETGAPTYADDFKGRFVLSLDTSVSTAYLQISSLKSEDTAVYYCSRGRDYDPHFDYWGQGTLVTVSS VL: EIVLTQSPATLSLSPGERATLSCRASQSISDFLHWYQQKPGQSPRLLIKYASQSISGIPARFSGSGSGSDFTLTISSVEPEDFAVYYCQSAHSFPYTFGQGTKLEIK | 168000 | 0.00225
1CP-123: humanized anti-CDCP1 antibody produced by 8E5; VH SEQ ID NO: 350, VL SEQ ID NO: 359 (antibody, V domains shown, humanized antibody 8E5 heavy chain variable region 04; humanized antibody 8E5 light chain variable region 03) VH: QVQLQQSGSELKKPGESVKLSCKASGYTLTDFSMHWVRQAPGQGLKWMGWINTETGAPTYADDFKGRFVFSLDTSVSMAYLQISSLKSEDTAVYYCSRGRDYDPHFDYWGQGTLVTVSS VL: EIVLTQSPATLSLSPGERATLSCRASQSISDFLHWYQQKSGQSPRLLIKYASQSISGIPARFSGSGSGSDFTLTISSVEPEDFAVYYCQSAHSFPYTFGQGTKLEIK | 199000 | 0.00227
1CP-122: humanized anti-CDCP1 antibody produced by 8E5; VH SEQ ID NO: 349, VL SEQ ID NO: 359 (antibody, V domains shown, humanized antibody 8E5 heavy chain variable region 03; humanized antibody 8E5 light chain variable region 03) VH: QVQLVQSGSELKKPGESVKVSCKASGYTLTDFSMHWVRQAPGQGLEWMGWINTETGAPTYADDFKGRFVLSLDTSVSTAYLQISSLKSEDTAVYYCSRGRDYDPHFDYWGQGTLVTVSS VL: EIVLTQSPATLSLSPGERATLSCRASQSISDFLHWYQQKSGQSPRLLIKYASQSISGIPARFSGSGSGSDFTLTISSVEPEDFAVYYCQSAHSFPYTFGQGTKLEIK | 167000 | 0.00209
1CP-120: humanized anti-CDCP1 antibody produced by 8E5; VH SEQ ID NO: 347, VL SEQ ID NO: 359 (antibody, V domains shown, humanized antibody 8E5 heavy chain variable region 01; humanized antibody 8E5 light chain variable region 03) VH: QVQLVQSGSELKKPGASVKVSCKASGYTLTDFSMHWVRQAPGQGLEWMGWINTETGAPTYADDFKGRFVFSLDTSVSTAYLQISSLKAEDTAVYYCSRGRDYDPHFDYWGQGTLVTVSS VL: EIVLTQSPATLSLSPGERATLSCRASQSISDFLHWYQQKSGQSPRLLIKYASQSISGIPARFSGSGSGSDFTLTISSVEPEDFAVYYCQSAHSFPYTFGQGTKLEIK | 139000 | 1.7e-05
1CP-119: humanized anti-CDCP1 antibody produced by 8E5; VH SEQ ID NO: 350, VL SEQ ID NO: 358 (antibody, V domains shown, humanized antibody 8E5 heavy chain variable region 04; humanized antibody 8E5 light chain variable region 02) VH: QVQLQQSGSELKKPGESVKLSCKASGYTLTDFSMHWVRQAPGQGLKWMGWINTETGAPTYADDFKGRFVFSLDTSVSMAYLQISSLKSEDTAVYYCSRGRDYDPHFDYWGQGTLVTVSS VL: EIVLTQSPATLSLSPGERATLSCRASQSISDFLHWYQQKPGQSPRLLIKYASQSISGIPARFSGSGSGSDFTLTISSVEPEDFAVYYCQSAHSFPYTFGQGTKLEIK | 226000 | 0.00124

Further lines, results first:

ka [M⁻¹ s⁻¹] | kd [s⁻¹] | Molecule
249000 | 0.0012 | 1CP-135: humanized anti-CDCP1 antibody produced by 3C11; VH SEQ ID NO: 342, VL SEQ ID NO: 353 (antibody, V domains shown, humanized antibody 3C11 heavy chain variable region 04; humanized antibody 3C11 light chain variable region 03) VH: QVQLVQSGAEVKKPGASVKVSCKASGYNFISYWLHWVRQAPGQGLEWMGGIYPGNTDTTYNQKFKGRVTVTAVTSTSTVYMELSSLRSEDTAVYYCIRYDYDRGMDYWGQGTLVTVSS VL: DIQMTQSPSSLSASVGDRVTITCRASEDIYYRLAWYQQKPGNAPKLLISGATALETGVPSRFSGSGSGKDYTLTISSLQPEDIATYYCQHYWNIPWTFGQGTKVEIK
183000 | 1e-05 | 1CP-133: humanized anti-CDCP1 antibody produced by 3C11; VH SEQ ID NO: 340, VL SEQ ID NO: 353 (antibody, V domains shown, humanized antibody 3C11 heavy chain variable region 02; humanized antibody 3C11 light chain variable region 03) VH: QVQLVQSGAEVKKPGASVKVSCKASGYNFISYWLHWVRQAPGQGLEWMGGIYPGNTDTTYNQKFKGRVTMTADTSTSTVYMELSSLRSEDTAVYYCIRYDYDRGMDYWGQGTLVTVSS VL: DIQMTQSPSSLSASVGDRVTITCRASEDIYYRLAWYQQKPGNAPKLLISGATALETGVPSRFSGSGSGKDYTLTISSLQPEDIATYYCQHYWNIPWTFGQGTKVEIK
158000 | 0.00302 | 1CP-151: humanized anti-CDCP1 antibody produced by 8C9; VH SEQ ID NO: 343, VL SEQ ID NO: 354 (antibody, V domains shown, humanized antibody 8C9 heavy chain variable region 01; humanized antibody 8C9 light chain variable region 01) VH: EVQLVESGGGLVQPGRSLRLSCTASGLTFTHYHMSWFRQAPGKGLEWVAIIRNKAYGYTTDYSASVRGRFTISRDDSKSILYLQMNSLKTEDTAVYYCVREGGYGYDGTFAYWGQGTLVTVSS VL: DIQMTQSPSSLSASVGDRVTITCRASESVDNYGISFMNWFQQKPGQAPKLLIYAASNQGSGVPSRFSGSGSGTDFTLTISSMQPEDFATYYCQQSKEVPRTFGGGTKVEIK
